Residue numbers refer to the chain shown, from its start.
B1: Helicobacter pylori Hsp60 with a 6 × His tag on its C terminus (natural protein, Helicobacter pylori 26695, UniProt P42383 1-546, looked up)
chain: MAKEIKFSDSARNLLFEGVRQLHDAVKVTMGPRGRNVLIQKSYGAPSITKDGVSVAKEIELSCPVANMGAQLVKEVASKTADAAGDGTTTATVLAYSIFKEGLRNITAGANPIEVKRGMDKAAEAIINELKKASKKVGGKEEITQVATISANSDHNIGKLIADAMEKVGKDGVITVEEAKGIEDELDVVEGMQFDRGYLSPYFVTNAEKMTAQLDNAYILLTDKKISSMKDILPLLEKTMKEGKPLLIIAEDIEGEALTTLVVNKLRGVLNIAAVKAPGFGDRRKEMLKDIAILTGGQVISEELGLSLENAEVEFLGKAGRIVIDKDNTTIVDGKGHSHDVKDRVAQIKTQIASTTSDYDKEKLQERLAKLSGGVAVIKVGAASEVEMKEKKDRVDDALSATKAAVEEGIVIGGGAALIRAAQKVHLNLHDDEKVGYEIIMRAIKAPLAQIAINAGYDGGVVVNEVEKHEGHFGFNASNGKYVDMFKEGIIDPLKVERIALQNAVSVSSLLLTTEATVHEIKEEKAAPAMPDMGGMGGMGGMGGMM
notes: also called recombinant Hsp60; source: E. coli BL21(DE3), purified (Ni-NTA, Sephadex G-75 gel filtration); not shown: His6, C-terminal, kept
B2: UreA-His (urease α subunit fused with a His tag on its C-terminus) (natural protein)
chain: MKLTPKELDKLMLHYAGELAKKRKEKGIKLNYVEAVALISAHIMEEARAGKKTAAELMQEGRTLLKPDDVMDGVASMIHEVGIEAMFPDGTKLVTVHTPIEANGKLVPGELFLKNEDITINEGKKAVSVKVKNVGDRPVQIGSHFHFFEVNRCLDFDREKTFGKRLDIASGTAVRFEPGEEKSVELIDIGGNRRIFGFNALVDRQADNESKKIALHRAKERGFHGAKSDDNYVKTIKE
notes: also called wild-type UreA-His; urease subunit α; source: E. coli BL21(DE3), purified (Ni-NTA); not shown: His tag, C-terminal, kept
B3: UreA-His D68A (natural protein)
chain: B2 chain with D68A
notes: source: E. coli BL21(DE3), purified as wild-type UreA-His; not shown: His tag, C-terminal, kept
B4: UreA-His E25A (natural protein)
chain: B2 chain with E25A
notes: as for B3
B5: UreA-His K22A (natural protein)
chain: B2 chain with K22A
notes: as for B3
B6: UreA-His K26A (natural protein)
chain: B2 chain with K26A
notes: as for B3
B7: UreA-His K66A (natural protein)
chain: B2 chain with K66A
notes: as for B3
B8: UreA-His R23A (natural protein)
chain: B2 chain with R23A
notes: as for B3
B9: UreA-His Y15A (natural protein)
chain: B2 chain with Y15A
notes: as for B3

biological target: T1, UreA-GST (UreA fused with GST tag on its C-terminus) (Helicobacter pylori 26695, UniProt P14916 1-238); assay: pull-down; GST-fused proteins on glutathione Sepharose 4B beads (20 μl), incubated with 0.4 ml purified Hsp60 (1 mg/ml in 50 mM Tris-HCl, pH 8.0) at 4°C for 2 h; washed four times; Western blot (anti-His) and SDS-PAGE; settings: both partners purified
T1 construct: source: E. coli BL21(DE3), supernatant immobilized on glutathione Sepharose 4B beads; not shown: GST, C-terminal, kept
T1 sequence: B2 chain

Question: With B1 as the binder, how does the “stoichiometry N” value read?
Answer: ~1 Hsp60:UreA-GST

biological target: B1; assay: SPR; BIAcore T100; Hsp60 immobilized on CM5 chip (~600 RU); UreA-His or mutants as analytes (0.36-2.19 μM); PBS pH 7.4, 30 μl/min, 25°C; kinetic analysis, global fit to 1:1 Langmuir model; settings: both partners purified

Question: How did the Kd turn out when B2 was run?
Answer: 17 nM

Question: And the koff?
Answer: 0.000126 s⁻¹

Question: What about the kon of the same binder?
Answer: 7286 ± 15 M⁻¹ s⁻¹

Question: Which results are given for B3?
Answer: Kd: 2000 nM; koff: 0.00227 s⁻¹; kon: 1160 ± 41 M⁻¹ s⁻¹

Question: Which results are given for B4?
Answer: Kd: 140 nM; koff: 0.00567 s⁻¹; kon: 40200 ± 1670 M⁻¹ s⁻¹

Question: How did the Kd turn out when B5 was run?
Answer: 310 nM

Question: What about the koff of the same binder?
Answer: 0.00179 s⁻¹

Question: And the kon?
Answer: 5840 ± 146 M⁻¹ s⁻¹

Question: For B6, which Kd is on record?
Answer: 460 nM

Question: What about the koff of the same binder?
Answer: 0.0122 s⁻¹

Question: What about the kon of the same binder?
Answer: 26200 ± 250 M⁻¹ s⁻¹

Question: What does the source list for B7?
Answer: Kd: 210 nM; koff: 0.00115 s⁻¹; kon: 5400 ± 214 M⁻¹ s⁻¹

Question: How did the Kd turn out when B8 was run?
Answer: 280 nM

Question: What about the koff of the same binder?
Answer: 0.00144 s⁻¹

Question: What about the kon of the same binder?
Answer: 5070 ± 85 M⁻¹ s⁻¹

Question: Which Kd does the source give for B9 here?
Answer: 150 nM

Question: What about the koff of the same binder?
Answer: 0.00164 s⁻¹

Question: And the kon?
Answer: 11200 ± 287 M⁻¹ s⁻¹
